# B1: EGF: commercially available growth factor (protein, UniProt P01133 23-1207, looked up)
# Pro-epidermal growth factor: PQHWSCPEGTLAGNGNSTCVGPAPFLIFSHGNSIFRIDTEGTNYEQLVVDAGVSVIMDFHYNEKRIYWVDLERQLLQRVFLNGSRQERVCNIEKNVSGMAINWINEEVIWSNQQEGIITVTDMKGNNSHILLSALKYPANVAVDPVERFIFWSSEVAGSLYRADLDGVGVKALLETSEKITAVSLDVLDKRLFWIQYNREGSNSLICSCDYDGGSVHISKHPTQHNLFAMSLFGDRIFYSTWKMKTIWIANKHTGKDMVRINLHSSFVPLGELKVVHPLAQPKAEDDTWEPEQKLCKLRKGNCSSTVCGQDLQSHLCMCAEGYALSRDRKYCEDVNECAFWNHGCTLGCKNTPGSYYCTCPVGFVLLPDGKRCHQLVSCPRNVSECSHDCVLTSEGPLCFCPEGSVLERDGKTCSGCSSPDNGGCSQLCVPLSPVSWECDCFPGYDLQLDEKSCAASGPQPFLLFANSQDIRHMHFDGTDYGTLLSQQMGMVYALDHDPVENKIYFAHTALKWIERANMDGSQRERLIEEGVDVPEGLAVDWIGRRFYWTDRGKSLIGRSDLNGKRSKIITKENISQPRGIAVHPMAKRLFWTDTGINPRIESSSLQGLGRLVIASSDLIWPSGITIDFLTDKLYWCDAKQSVIEMANLDGSKRRRLTQNDVGHPFAVAVFEDYVWFSDWAMPSVMRVNKRTGKDRVRLQGSMLKPSSLVVVHPLAKPGADPCLYQNGGCEHICKKRLGTAWCSCREGFMKASDGKTCLALDGHQLLAGGEVDLKNQVTPLDILSKTRVSEDNITESQHMLVAEIMVSDQDDCAPVGCSMYARCISEGEDATCQCLKGFAGDGKLCSDIDECEMGVPVCPPASSKCINTEGGYVCRCSEGYQGDGIHCLDIDECQLGEHSCGENASCTNTEGGYTCMCAGRLSEPGLICPDSTPPPHLREDDHHYSVRNSDSECPLSHDGYCLHDGVCMYIEALDKYACNCVVGYIGERCQYRDLKWWELRHAGHGQQQKVIVVAVCVVVLVMLLLLSLWGAHYYRTQKLLSKNPKNPYEESSRDVRSRRPADTEDGMSSCPQPWFVVIKEHQDLKNGGQPVAGEDGQAADGSMQPTSWRQEPQLCGMGTEQGCWIPVSSDKGSCPQVMERSFHMPSYGTQTLEGGVEKPHSLLSANPLWQQRALDPPHQMELTQ
# modifications: Pro-epidermal growth factor
# Columns and labels:
# Assay type in all cases: cell-based, human
# [1] = system: Ewing's Sarcoma cell line Cu-1; assay: Colony formation in semi-solid agar cultures, Cu-1 cells; settings: Cu-1, 10,000 cells; stimulus 100 ng; mean of duplicate colony counts, day 18
# Method: (§1) Tumour cells obtained from biopsy and bone marrow specimens from patients with Ewing's Sarcoma were used in these studies. Approval for this project has been obtained from the Ethics Committee of the Royal Children's Hospital.
# (§2) Single cell suspensions of tumour cells were obtained by mechanical disruption with an 18G or 21G needle or by pipetting, followed by incubation with dispase II (Boehringer) at a concentration of 1.2 units per ml for 10 minutes at 37° C. Prior to the addition to agar-medium the cells were vortexed gently to prevent clumping.
# (§3) Clonal cell lines were grown in Iscove's Modified Dulbecco's Medium (IMDM) supplemented with 10% v/v foetal calf serum (FCS; CSL Limited, Melbourne, Australia) and were passaged either weekly or twice weekly. The characteristics of the Ewing Sarcoma cell lines used herein as described below:
# (§4) Cell lines derived from the above primary cell lines (Al and Cu) are identified by an Arabic numeral (e.g. Al-1, Al-5, Al-8 or Cu-1).
# (§5) The tumour cells were immobilised in 0.3% w/v agar containing Iscove's Modified Dulbecco's Medium (IMDM) and 10% v/v FCS. […] Cultures were scored for the presence of colonies (>40 cells) or clusters (<40 cells). The number of cells plated per culture ranged from 500 to 10,000 per ml. Colonies were counted on an Olympus dissecting microscope. […]
# [2] = system: Ewing's Sarcoma cell line Al-8; assay: Colony formation in semi-solid agar cultures, Al-8 cells; settings: Al-8, 1,000 cells; stimulus 100 ng; mean of duplicate colony counts, day 18
# Method: as §1, §2, §3, §4, §5
# [3] = system: Ewing's Sarcoma cell line Al-1; assay: Colony formation in semi-solid agar cultures, Al-1 cells; settings: stimulus 100 ng, mean of duplicate colony counts, day 18
# Method: as §1, §2, §3, §4, §5
# [4] = system: Ewing's Sarcoma cell line Al (uncloned); assay: Colony formation in semi-solid agar cultures, Al (uncloned) cells; settings: Al(uncloned), 5,000 cells; stimulus 100 ng; mean of duplicate colony counts, day 18
# Method: as §1, §2, §3
# The tumour cells were immobilised in 0.3% w/v agar containing Iscove's Modified Dulbecco's Medium (IMDM) and 10% v/v FCS. […] Cultures were scored for the presence of colonies (>40 cells) or clusters (<40 cells). The number of cells plated per culture ranged from 500 to 10,000 per ml. Colonies were counted on an Olympus dissecting microscope.
# IL-1, IL-3, IL-4, IL-6, M-CSF, G-CSF, GM-CSF, Stem Cell Factor (SCF), TNFα, TGFα, TGFβ, EGF, aFGF, bFGF, NGF, IGF I, IGF II, PDGF and IFN-γ. […]
molecule,measurement,setting,value
B1,Colonies/Cultures,[1],430
same,Colonies/Cultures,[2],68
same,Colonies/Cultures,"[3]; Al-1, 1,000 cells",41
same,Colonies/Cultures,"[3]; Al-1, 10,000 cells",685
same,Colonies/Cultures,[4],258

# Reference: patent publication US5599789A, “Method for the treatment of tumours and sarcomas” (Amrad Corporation Limited, priority 1991, dated 1997)
